B1: PPO4A: nucleotide sequence encoding microbial protoporphyrinogen oxidase PPO4 (SEQ ID NO:4), Arabidopsis thaliana/soybean common codon usage bias (nucleic acid)
DNA: ATGAAAACCCTGATTCTTTACAGCAGTCATGATGGACAGACCAAGAAAATCTCAGAGTTCCTTACGGCGTTGTTGAATGGCGAAGTTCTAGTTGATGCTCTACGTGAAGATTATGATATTGAAACATTTGACCAAGTTATAATCGGAGCTTCCATAAGGTATGGTCACTTTTCTAAGACTTTAGACAGATTTGTGGTGAGAAACAGGGTACATCTGGAACAAAAACGAGCAGTATTCTTCTCTGTTAACTTAACTGCCCGAAAAGAAGGTAAAGACAATCCTGAAACTAATGTCTATGTCAGAAAGTTTCTCCAGAGAACAAAATGGCAACCAAAACTTGCTGCCGTCTTCGCAGGTGCACTCTTGTACCCGAGATATAAGTGGTTTGATCGTGTGATGATTCGGTTTATCATGAAGATTACTGGGGGAGAGACGGATATAACAAAGGAGATTGAGTACACAGATTGGGAAAAGGTTAGGGAGTTCGCTCAGAGAATCAACCGCCTTGAGAAATGA
modifications: PPO4A Nucleotide Sequence
B2: PPO5A: nucleotide sequence encoding microbial protoporphyrinogen oxidase PPO5 (SEQ ID NO:5), Arabidopsis thaliana/soybean common codon usage bias (nucleic acid)
DNA: ATGAAGACTCTTATCCTCTACTTCACAACAGACGGCCAAACGAAAAAGATTGCCGAGAGACTGGCTGATGTGATTACTCATGAAGTGGAGCTAATCTCCTTGAAAGATCAAGCTGTTGATTTTGCTCAGAAGATGGCTAATGTTGACCAAGTAGTCATTGGAGCGAGTATAAGGTATGGTCACTTCAGCCCTCTTGTTTATCAGTTTATTGAACAACATTATGCAATGTTGAATGAGAAGAAAACCGCTTTTTATGGAGTGAATCTCACAGCAAGGAAAGCAAATCGAAACACCCCAACCACAAATACTTACATCCGGAACTTCTTAGCAAAGGTGAAATGGCAACCTAACTATGTTGAGGTCATAGCTGGTGCCTTGTTTTACCCGCGTTACAGATTCATTGATAGAATGATGATTCGCTTCATCATGAAAGTAACGAAAGGAGAAACTGATGTTTCAAAAGAATATGAATACACAAACTGGCAGCAAGTTGAAGAGTTTGGGAAGAAGCTTTCTGATCAGTTAATATGA
modifications: PPO5A Nucleotide Sequence

Key:
Assay type in all cases: in vivo
Conditions in all cases: 7 DAT, number of plants of 24 per genotype, grades
[1] = test system: Arabidopsis thaliana T1 plants; assay: oxyfluorfen tolerance of transgenic Arabidopsis thaliana T1 plants (spray, grade of pesticide damage)
From the text: (§1) The transformed Arabidopsis thaliana T1 plants were initially selected using glufosinate herbicide. The Arabidopsis thaliana T1 plants (PPO1A) into which the PPO1A nucleotide sequence was introduced, the Arabidopsis thaliana T1 plants (PPO2A) into which the PPO2A nucleotide sequence was introduced, the Arabidopsis thaliana T1 plants (PPO3A) into which the PPO3A nucleotide sequence was introduced, the Arabidopsis thaliana T1 plants (PPO4A) into which the PPO4A nucleotide sequence was introduced, the Arabidopsis thaliana T1 plants (PPO5A) into which the PPO5A nucleotide sequence was introduced, the Arabidopsis thaliana T1 plants (PPO6A) into which the PPO6A nucleotide sequence was introduced, the Arabidopsis thaliana T1 plants (PPO7A) into which the PPO7A nucleotide sequence was introduced, the Arabidopsis thaliana T1 plants (PPO8A) into which the PPO8A nucleotide sequence was introduced, the Arabidopsis thaliana T1 plants (PPO9A) into which the PPO9A nucleotide sequence was introduced, the Arabidopsis thaliana T1 plants (PPO10A) into which the […] nucleotide sequence was introduced, the Arabidopsis thaliana T1 plants (PPO11A) into which the PPO11A nucleotide sequence was introduced, the Arabidopsis thaliana T1 plants (PPO12A) into which the PPO12A nucleotide sequence was introduced, the Arabidopsis thaliana T1 plants (PPO13A) into which the PPO13A nucleotide sequence was introduced, the Arabidopsis thaliana T1 plants (PPO14A) into which the PPO14A nucleotide sequence was introduced, the Arabidopsis thaliana T1 plants (PPO-ATA) into which the PPO-ATA nucleotide sequence was introduced, the Arabidopsis thaliana T1 plants (PPO-APA) into which the PPO-APA nucleotide sequence was introduced, the Arabidopsis thaliana T1 plants (control vector) into which the control vector was introduced, and the wild-type Arabidopsis thaliana plants (CK) (with 24 plants being included in each genotype) (18 days after sowing) were sprayed with oxyfluorfen at three concentrations (180 g ai/ha (one-fold field concentration, 1×), 720 g ai/ha (four-fold field concentration, 4×), and 0 g ai/ha (water, 0×)), saflufenacil at three concentrations (25 g ai/ha (one-fold field concentration, 1×), 100 g ai/ha (four-fold field concentration, 4×), and 0 g ai/ha (water, 0×)), flumioxazin at three concentrations (60 g ai/ha (one-fold field concentration, 1×), 240 g ai/ha (four-fold field concentration, 4×), and 0 g ai/ha (water, 0×), and sulfentrazone at three concentrations (450 g ai/ha (one-fold field concentration, 1×), 900 g ai/ha (two-fold field concentration, 2×), and 0 g ai/ha (water, 0×) to determine the tolerance of Arabidopsis thaliana to the herbicides. After 7 days of spraying (7 DAT), the damage level of each plant caused by the herbicide was evaluated according to the average of the damage levels (%) of plants (the average of the damage levels (%) of plants=the injured leaf area/the total leaf area×[…]), i.e., the grade of pesticide damage: grade 0 means that the growth status of plants is essentially consistent with those sprayed with the blank solvent (water); grade 1 means that the average of the damage levels of plants is less than 10%; grade 2 means that the average of the damage levels of plants is greater than […]; and grade 3 means that the average of the damage levels of plants is 100%. The plants having a growth status falling within grades 0 and 1 are classified as highly resistant plants; those having a growth status falling within grade 2 are classified as poorly resistant plants; and those having a growth status falling within grade 3 are classified as non-resistant plants.

[2] = test system: Arabidopsis thaliana T1 plants; assay: saflufenacil tolerance of transgenic Arabidopsis thaliana T1 plants (spray, grade of pesticide damage)
From the text: as §1

[3] = test system: Arabidopsis thaliana T1 plants; assay: flumioxazin tolerance of transgenic Arabidopsis thaliana T1 plants (spray, grade of pesticide damage)
From the text: as §1

[4] = test system: Arabidopsis thaliana T1 plants; assay: sulfentrazone tolerance of transgenic Arabidopsis thaliana T1 plants (spray, grade of pesticide damage)
From the text: as §1

Molecule	The grade of pesticide damage/plant: grade 0 ([1]; oxyfluorfen 180 g ai/ha (1×)) [plant]	The grade of pesticide damage/plant: grade 1 ([1]; oxyfluorfen 180 g ai/ha (1×)) [plant]	The grade of pesticide damage/plant: grade 2 ([1]; oxyfluorfen 180 g ai/ha (1×)) [plant]	The grade of pesticide damage/plant: grade 3 ([1]; oxyfluorfen 180 g ai/ha (1×)) [plant]	The grade of pesticide damage/plant: grade 0 ([1]; oxyfluorfen 720 g ai/ha (4×)) [plant]	The grade of pesticide damage/plant: grade 1 ([1]; oxyfluorfen 720 g ai/ha (4×)) [plant]	The grade of pesticide damage/plant: grade 2 ([1]; oxyfluorfen 720 g ai/ha (4×)) [plant]	The grade of pesticide damage/plant: grade 3 ([1]; oxyfluorfen 720 g ai/ha (4×)) [plant]	The grade of pesticide damage/plant: grade 0 ([2]; saflufenacil 25 g ai/ha (1×)) [plant]	The grade of pesticide damage/plant: grade 1 ([2]; saflufenacil 25 g ai/ha (1×)) [plant]	The grade of pesticide damage/plant: grade 2 ([2]; saflufenacil 25 g ai/ha (1×)) [plant]	The grade of pesticide damage/plant: grade 3 ([2]; saflufenacil 25 g ai/ha (1×)) [plant]	The grade of pesticide damage/plant: grade 0 ([2]; saflufenacil 100 g ai/ha (4×)) [plant]	The grade of pesticide damage/plant: grade 1 ([2]; saflufenacil 100 g ai/ha (4×)) [plant]	The grade of pesticide damage/plant: grade 2 ([2]; saflufenacil 100 g ai/ha (4×)) [plant]	The grade of pesticide damage/plant: grade 3 ([2]; saflufenacil 100 g ai/ha (4×)) [plant]	The grade of pesticide damage/plant: grade 0 ([3]; flumioxazin 60 g ai/ha (1×)) [plant]	The grade of pesticide damage/plant: grade 1 ([3]; flumioxazin 60 g ai/ha (1×)) [plant]	The grade of pesticide damage/plant: grade 2 ([3]; flumioxazin 60 g ai/ha (1×)) [plant]	The grade of pesticide damage/plant: grade 3 ([3]; flumioxazin 60 g ai/ha (1×)) [plant]	other results
B1	24	0	0	0	22	2	0	0	24	0	0	0	4	20	0	0	24	0	0	0	The grade of pesticide damage/plant: grade 0 ([3]; flumioxazin 240 g ai/ha (4×)): 22 plant; The grade of pesticide damage/plant: grade 1 ([3]; flumioxazin 240 g ai/ha (4×)): 2 plant; The grade of pesticide damage/plant: grade 2 ([3]; flumioxazin 240 g ai/ha (4×)): 0 plant; The grade of pesticide damage/plant: grade 3 ([3]; flumioxazin 240 g ai/ha (4×)): 0 plant; The grade of pesticide: grade 0 ([4]; sulfentrazone 450 g ai/ha (1×)): 24; The grade of pesticide: grade 1 ([4]; sulfentrazone 450 g ai/ha (1×)): 0; The grade of pesticide: grade 2 ([4]; sulfentrazone 450 g ai/ha (1×)): 0; The grade of pesticide: grade 3 ([4]; sulfentrazone 450 g ai/ha (1×)): 0; The grade of pesticide: grade 0 ([4]; sulfentrazone 900 g ai/ha (2×)): 18; The grade of pesticide: grade 1 ([4]; sulfentrazone 900 g ai/ha (2×)): 6; The grade of pesticide: grade 2 ([4]; sulfentrazone 900 g ai/ha (2×)): 0; The grade of pesticide: grade 3 ([4]; sulfentrazone 900 g ai/ha (2×)): 0
B2	24	0	0	0	22	2	0	0	24	0	0	0	0	24	0	0	24	0	0	0	The grade of pesticide damage/plant: grade 0 ([3]; flumioxazin 240 g ai/ha (4×)): 21 plant; The grade of pesticide damage/plant: grade 1 ([3]; flumioxazin 240 g ai/ha (4×)): 3 plant; The grade of pesticide damage/plant: grade 2 ([3]; flumioxazin 240 g ai/ha (4×)): 0 plant; The grade of pesticide damage/plant: grade 3 ([3]; flumioxazin 240 g ai/ha (4×)): 0 plant; The grade of pesticide: grade 0 ([4]; sulfentrazone 450 g ai/ha (1×)): 24; The grade of pesticide: grade 1 ([4]; sulfentrazone 450 g ai/ha (1×)): 0; The grade of pesticide: grade 2 ([4]; sulfentrazone 450 g ai/ha (1×)): 0; The grade of pesticide: grade 3 ([4]; sulfentrazone 450 g ai/ha (1×)): 0; The grade of pesticide: grade 0 ([4]; sulfentrazone 900 g ai/ha (2×)): 20; The grade of pesticide: grade 1 ([4]; sulfentrazone 900 g ai/ha (2×)): 4; The grade of pesticide: grade 2 ([4]; sulfentrazone 900 g ai/ha (2×)): 0; The grade of pesticide: grade 3 ([4]; sulfentrazone 900 g ai/ha (2×)): 0

Reference: US20240200091A1, “USE OF PROTOPORPHYRINOGEN OXIDASE” (BEIJING DABEINONG BIOTECHNOLOGY CO., LTD., priority 2021, published 2024)
